Consider 27 molecules from paper PMC10786891, “Massively parallel profiling of RNA-targeting CRISPR-Cas13d”.

The chains are these.
B1: target 1 insA 3' of 12,insA 3' of 5 (mixed)
RNA 1: CACCCGUGCAAAAAUGCAGGGGUCUAAAACUGAGCGGAUAACCUCUCUAUGG
RNA 2: GGGAAUGGAUCCACAUCUACGAAUUCGUACCAUAGAGAGGAUUAUCCGACUCACCGAGAUCGGAAGAGCACACGU
B2: target 1 G5U,G13A (mixed)
RNA 1: CACCCGUGCAAAAAUGCAGGGGUCUAAAACUGAGCGGAUAACCUCUCUAUGG
RNA 2: GGGAAUGGAUCCACAUCUACGAAUUCGUACCAUAGAGAAGUUAUCCUCUCACCGAGAUCGGAAGAGCACACGU
B3: target 1 insC 3' of 17,insA 3' of 4 (mixed)
RNA 1: CACCCGUGCAAAAAUGCAGGGGUCUAAAACUGAGCGGAUAACCUCUCUAUGG
RNA 2: GGGAAUGGAUCCACAUCUACGAAUUCGUACCAUAGCAGAGGUUAUCCGCAUCACCGAGAUCGGAAGAGCACACGU
B4: target 1 insA 3' of 10,insC 3' of 10 (mixed)
RNA 1: CACCCGUGCAAAAAUGCAGGGGUCUAAAACUGAGCGGAUAACCUCUCUAUGG
RNA 2: GGGAAUGGAUCCACAUCUACGAAUUCGUACCAUAGAGAGGUUACAUCCGCUCACCGAGAUCGGAAGAGCACACGU
B5: target 1 insU 3' of 13,insG 3' of 2 (mixed)
RNA 1: CACCCGUGCAAAAAUGCAGGGGUCUAAAACUGAGCGGAUAACCUCUCUAUGG
RNA 2: GGGAAUGGAUCCACAUCUACGAAUUCGUACCAUAGAGAGUGUUAUCCGCUCGACCGAGAUCGGAAGAGCACACGU
B6: target 1 insU 3' of 17,insC 3' of 3 (mixed)
RNA 1: CACCCGUGCAAAAAUGCAGGGGUCUAAAACUGAGCGGAUAACCUCUCUAUGG
RNA 2: GGGAAUGGAUCCACAUCUACGAAUUCGUACCAUAGUAGAGGUUAUCCGCUCCACCGAGAUCGGAAGAGCACACGU
B7: target 1 G12A,G13U (mixed)
RNA 1: CACCCGUGCAAAAAUGCAGGGGUCUAAAACUGAGCGGAUAACCUCUCUAUGG
RNA 2: GGGAAUGGAUCCACAUCUACGAAUUCGUACCAUAGAGAUAUUAUCCGCUCACCGAGAUCGGAAGAGCACACGU
B8: target 1 insG 3' of 21,insA 3' of 13 (mixed)
RNA 1: CACCCGUGCAAAAAUGCAGGGGUCUAAAACUGAGCGGAUAACCUCUCUAUGG
RNA 2: GGGAAUGGAUCCACAUCUACGAAUUCGUACCGAUAGAGAGAGUUAUCCGCUCACCGAGAUCGGAAGAGCACACGU
B9: target 1 insG 3' of 6,insU 3' of 2 (mixed)
RNA 1: CACCCGUGCAAAAAUGCAGGGGUCUAAAACUGAGCGGAUAACCUCUCUAUGG
RNA 2: GGGAAUGGAUCCACAUCUACGAAUUCGUACCAUAGAGAGGUUAUCCGGCUCUACCGAGAUCGGAAGAGCACACGU
B10: target 1 C2G,G17U (mixed)
RNA 1: CACCCGUGCAAAAAUGCAGGGGUCUAAAACUGAGCGGAUAACCUCUCUAUGG
RNA 2: GGGAAUGGAUCCACAUCUACGAAUUCGUACCAUAUAGAGGUUAUCCGCUGACCGAGAUCGGAAGAGCACACGU
B11: target 1 insC 3' of 13,insU 3' of 13 (mixed)
RNA 1: CACCCGUGCAAAAAUGCAGGGGUCUAAAACUGAGCGGAUAACCUCUCUAUGG
RNA 2: GGGAAUGGAUCCACAUCUACGAAUUCGUACCAUAGAGAGCUGUUAUCCGCUCACCGAGAUCGGAAGAGCACACGU
B12: target 1 C2A,U19C (mixed)
RNA 1: CACCCGUGCAAAAAUGCAGGGGUCUAAAACUGAGCGGAUAACCUCUCUAUGG
RNA 2: GGGAAUGGAUCCACAUCUACGAAUUCGUACCACAGAGAGGUUAUCCGCUAACCGAGAUCGGAAGAGCACACGU
B13: target 1 G12U,G13U (mixed)
RNA 1: CACCCGUGCAAAAAUGCAGGGGUCUAAAACUGAGCGGAUAACCUCUCUAUGG
RNA 2: GGGAAUGGAUCCACAUCUACGAAUUCGUACCAUAGAGAUUUUAUCCGCUCACCGAGAUCGGAAGAGCACACGU
B14: target 1 U8A,C22G (mixed)
RNA 1: CACCCGUGCAAAAAUGCAGGGGUCUAAAACUGAGCGGAUAACCUCUCUAUGG
RNA 2: GGGAAUGGAUCCACAUCUACGAAUUCGUAGCAUAGAGAGGUUAACCGCUCACCGAGAUCGGAAGAGCACACGU
B15: target 1 A1C,C2A (mixed)
RNA 1: CACCCGUGCAAAAAUGCAGGGGUCUAAAACUGAGCGGAUAACCUCUCUAUGG
RNA 2: GGGAAUGGAUCCACAUCUACGAAUUCGUACCAUAGAGAGGUUAUCCGCUACCCGAGAUCGGAAGAGCACACGU
B16: target 1 insC 3' of 15,insG 3' of 8 (mixed)
RNA 1: CACCCGUGCAAAAAUGCAGGGGUCUAAAACUGAGCGGAUAACCUCUCUAUGG
RNA 2: GGGAAUGGAUCCACAUCUACGAAUUCGUACCAUAGAGCAGGUUAUGCCGCUCACCGAGAUCGGAAGAGCACACGU
B17: target 1 insU 3' of 14,insU 3' of 2 (mixed)
RNA 1: CACCCGUGCAAAAAUGCAGGGGUCUAAAACUGAGCGGAUAACCUCUCUAUGG
RNA 2: GGGAAUGGAUCCACAUCUACGAAUUCGUACCAUAGAGAUGGUUAUCCGCUCUACCGAGAUCGGAAGAGCACACGU
B18: target 1 insA 3' of 13,insA 3' of 13 (mixed)
RNA 1: CACCCGUGCAAAAAUGCAGGGGUCUAAAACUGAGCGGAUAACCUCUCUAUGG
RNA 2: GGGAAUGGAUCCACAUCUACGAAUUCGUACCAUAGAGAGAAGUUAUCCGCUCACCGAGAUCGGAAGAGCACACGU
B19: target 1 insU 3' of 12,insG 3' of 2 (mixed)
RNA 1: CACCCGUGCAAAAAUGCAGGGGUCUAAAACUGAGCGGAUAACCUCUCUAUGG
RNA 2: GGGAAUGGAUCCACAUCUACGAAUUCGUACCAUAGAGAGGUUUAUCCGCUCGACCGAGAUCGGAAGAGCACACGU
B20: target 1 A18U,C22U (mixed)
RNA 1: CACCCGUGCAAAAAUGCAGGGGUCUAAAACUGAGCGGAUAACCUCUCUAUGG
RNA 2: GGGAAUGGAUCCACAUCUACGAAUUCGUAUCAUUGAGAGGUUAUCCGCUCACCGAGAUCGGAAGAGCACACGU
B21: target 1 U10A,C22A (mixed)
RNA 1: CACCCGUGCAAAAAUGCAGGGGUCUAAAACUGAGCGGAUAACCUCUCUAUGG
RNA 2: GGGAAUGGAUCCACAUCUACGAAUUCGUAACAUAGAGAGGUAAUCCGCUCACCGAGAUCGGAAGAGCACACGU
B22: target 1 insA 3' of 8,insG 3' of 3 (mixed)
RNA 1: CACCCGUGCAAAAAUGCAGGGGUCUAAAACUGAGCGGAUAACCUCUCUAUGG
RNA 2: GGGAAUGGAUCCACAUCUACGAAUUCGUACCAUAGAGAGGUUAUACCGCUGCACCGAGAUCGGAAGAGCACACGU
B23: target 1 C7G,U8C (mixed)
RNA 1: CACCCGUGCAAAAAUGCAGGGGUCUAAAACUGAGCGGAUAACCUCUCUAUGG
RNA 2: GGGAAUGGAUCCACAUCUACGAAUUCGUACCAUAGAGAGGUUACGCGCUCACCGAGAUCGGAAGAGCACACGU
B24: target 1 C2A (mixed)
RNA 1: CACCCGUGCAAAAAUGCAGGGGUCUAAAACUGAGCGGAUAACCUCUCUAUGG
RNA 2: GGGAAUGGAUCCACAUCUACGAAUUCGUACCAUAGAGAGGUUAUCCGCUAACCGAGAUCGGAAGAGCACACGU
B25: target 1 U3A,G5A (mixed)
RNA 1: CACCCGUGCAAAAAUGCAGGGGUCUAAAACUGAGCGGAUAACCUCUCUAUGG
RNA 2: GGGAAUGGAUCCACAUCUACGAAUUCGUACCAUAGAGAGGUUAUCCACACACCGAGAUCGGAAGAGCACACGU
B26: target 1 insU 3' of 9,insA 3' of 4 (mixed)
RNA 1: CACCCGUGCAAAAAUGCAGGGGUCUAAAACUGAGCGGAUAACCUCUCUAUGG
RNA 2: GGGAAUGGAUCCACAUCUACGAAUUCGUACCAUAGAGAGGUUAUUCCGCAUCACCGAGAUCGGAAGAGCACACGU
B27: target 1 insG 3' of 16,insU 3' of 14 (mixed)
RNA 1: CACCCGUGCAAAAAUGCAGGGGUCUAAAACUGAGCGGAUAACCUCUCUAUGG
RNA 2: GGGAAUGGAUCCACAUCUACGAAUUCGUACCAUAGAGGAUGGUUAUCCGCUCACCGAGAUCGGAAGAGCACACGU

The data set concerns the target T1, EsCas13d, nuclease-dead (Eubacterium siraeum, UniProt B0MS50, R295A;H300A;R849A;H854A).
T1 sequence: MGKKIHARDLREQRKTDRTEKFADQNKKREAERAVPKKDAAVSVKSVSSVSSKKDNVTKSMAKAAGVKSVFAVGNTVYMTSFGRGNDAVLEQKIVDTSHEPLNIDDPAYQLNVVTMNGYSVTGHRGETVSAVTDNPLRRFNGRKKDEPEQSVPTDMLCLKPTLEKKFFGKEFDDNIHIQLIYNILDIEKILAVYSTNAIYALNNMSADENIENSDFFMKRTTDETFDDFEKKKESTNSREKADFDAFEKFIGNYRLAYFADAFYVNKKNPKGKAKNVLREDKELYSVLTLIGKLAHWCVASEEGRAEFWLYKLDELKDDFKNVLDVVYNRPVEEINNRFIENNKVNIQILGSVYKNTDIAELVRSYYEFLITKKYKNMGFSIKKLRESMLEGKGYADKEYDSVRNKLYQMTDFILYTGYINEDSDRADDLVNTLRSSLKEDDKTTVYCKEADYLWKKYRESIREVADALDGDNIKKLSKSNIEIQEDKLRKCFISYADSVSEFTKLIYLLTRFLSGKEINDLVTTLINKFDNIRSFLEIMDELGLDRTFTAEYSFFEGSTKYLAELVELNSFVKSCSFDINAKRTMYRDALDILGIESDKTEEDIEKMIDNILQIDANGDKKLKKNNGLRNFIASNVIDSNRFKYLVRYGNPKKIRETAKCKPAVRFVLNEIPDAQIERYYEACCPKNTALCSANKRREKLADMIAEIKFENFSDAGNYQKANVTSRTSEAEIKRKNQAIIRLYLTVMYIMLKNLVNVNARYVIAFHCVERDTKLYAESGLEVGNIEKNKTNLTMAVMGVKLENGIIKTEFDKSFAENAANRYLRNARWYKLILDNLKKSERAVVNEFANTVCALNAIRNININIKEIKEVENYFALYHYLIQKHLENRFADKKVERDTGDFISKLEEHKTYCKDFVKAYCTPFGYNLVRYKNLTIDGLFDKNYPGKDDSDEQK
The experiment in a line: crRNA (strand 1, pre-loaded); Mg2+; 40 mM Tris-HCl pH 7.5, 150 mM NaCl, 6 mM MgCl2, 1 mM DTT, 0.1% Tween-20, 0.2 mg/ml BSA; 25 C; 10 min per concentration, then washed. Conditions: tags: His6-TwinStrep-SUMO cleaved; N-terminal SNAP kept (SNAP-Surface 488); label: 3' end held by stalled T7 RNA polymerase.
With B1, binding was put at a Kd of 17.4 ± 1.6 nM.

On to B2, for which the Kd is 11.5 ± 0.5 nM. The figure for B3 is 28.6 ± 2.3 nM; for B4 it is 12.9 ± 1.3 nM; for B5 it is 21 ± 4 nM.

For B6, the Kd was determined as 29 ± 5 nM. The figure for B7 is 14.6 ± 1.4 nM; for B8 it is 44 ± 5 nM.

In turn, B9 had a Kd of 16.4 ± 0.9 nM. The value for B10 was 14.5 ± 0.7 nM; that for B11 was 8.3 ± 0.4 nM; that for B12 was 22.1 ± 1.6 nM. B13 gave an equilibrium dissociation constant (Kd) of 7.2 ± 0.5 nM. Compared with the last molecule, the Kd is about 3.1-fold lower. The value for B14 was 68 ± 13 nM. The value for B15 was 36 ± 4 nM; that for B16 was 23.3 ± 2.2 nM. The molecule B17 gave a Kd of 57 ± 8 nM. Take B18: the Kd is 7.9 ± 0.4 nM.

For B19, the affinity, expressed as Kd, was 6.9 ± 0.6 nM. The value for B20 was 74 ± 10 nM; that for B21 was 12.5 ± 1.2 nM; that for B22 was 10 ± 0.7 nM.

B23 returned a Kd of 10.7 ± 0.4 nM. The value for B24 was 9.3 ± 0.9 nM. The figure for B25 is 53 ± 8 nM; for B26 it is 8 ± 1 nM; for B27 it is 25.4 ± 2.4 nM.

What is called Kd is the equilibrium constant for the complex coming apart. A low value points to a tighter complex.
